What was measured:
[1] = target: T1, t-SNAREs: heterodimeric complex of syntaxin-1 and SNAP-25, membrane-integrated in liposomes (UniProt P32851 1-288; P60881 1-206); test: co-sedimentation
[2] = target: T1, t-SNAREs: heterodimeric complex of …; test: co-sedimentation; remark: listed apart in the source

T1 sequence (P32851 whole entry, chain 1 of 2): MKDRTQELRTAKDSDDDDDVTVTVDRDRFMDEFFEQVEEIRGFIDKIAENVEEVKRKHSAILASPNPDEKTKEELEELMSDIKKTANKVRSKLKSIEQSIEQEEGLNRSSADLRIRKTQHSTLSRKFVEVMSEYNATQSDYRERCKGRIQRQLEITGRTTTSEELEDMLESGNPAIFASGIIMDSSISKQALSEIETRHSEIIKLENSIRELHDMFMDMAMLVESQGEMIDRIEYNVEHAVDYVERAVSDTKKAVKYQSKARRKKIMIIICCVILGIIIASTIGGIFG
T1 sequence (P60881 whole entry, chain 2 of 2): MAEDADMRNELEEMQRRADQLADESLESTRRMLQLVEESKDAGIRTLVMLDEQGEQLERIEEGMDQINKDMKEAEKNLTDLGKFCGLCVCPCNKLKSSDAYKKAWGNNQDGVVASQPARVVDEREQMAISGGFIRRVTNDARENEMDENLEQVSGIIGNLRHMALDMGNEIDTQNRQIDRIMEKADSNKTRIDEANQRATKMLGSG

Kd [1] | fold binding against syntaxin-1 or SNAP-25 alone [2] | Binder
177 nM | – | MBP-DAMH (MBP fusion protein of the CAPS DAMH domain) (domain or fragment, UniProt Q62717 859-1073, looked up) ENVGRLITPAKKLEDTIRLAELVIEVLQQNEEHHAEAFAWWSDLMVEHAETFLSLFAVDMDAALEVQPPDTWDSFPLFQLLNDFLRTDYNLCNGKFHKHLQDLFAPLVVRYVDLMESSIAQSIHRGFERESWEPVNNGSGTSEDLFWKLDALQTFIRDLHWPEEEFGKHLEQRLKLMASDMIESCVKRTRIAFEVKLQKTSRSTDFRVPQSICTM
– | 2 fold | GST-DAMH (GST fusion protein of CAPS(859-1073), the DAMH domain) (domain or fragment, UniProt Q62717 859-1073, looked up) ENVGRLITPAKKLEDTIRLAELVIEVLQQNEEHHAEAFAWWSDLMVEHAETFLSLFAVDMDAALEVQPPDTWDSFPLFQLLNDFLRTDYNLCNGKFHKHLQDLFAPLVVRYVDLMESSIAQSIHRGFERESWEPVNNGSGTSEDLFWKLDALQTFIRDLHWPEEEFGKHLEQRLKLMASDMIESCVKRTRIAFEVKLQKTSRSTDFRVPQSICTM
